# Experimental data: US20220257733A1, “ANTIGENIC POLYPEPTIDES AND METHODS OF USE THEREOF” (AGENUS INC., priority 2019, published 2022)
# Non-standard residues stand in square brackets, D forms with d. No end group written: not given here. pT = C[C@@H](OP(=O)(O)O)[C@H](N)C(=O)O; pS = N[C@@H](COP(=O)(O)O)C(=O)O
# Target: HLA A*02:01 (Homo sapiens, UniProt P04439, D140Y/D185E/D98H/E176V/E277Q/G131W/G231S/I119V/I121R/I166T/I218V/L300P/L318F/N151K/N90K/P208A/P217A/Q86G/Q94H/R138H/R169H/T345S)
# Experiment: AlphaScreen assay of peptide binding to HLA A*02:01
# Parameters: key to Kd in nM A*02:01: NT means that binding was not tested; NB means no binding was detected; LB stands for low binding and indicates that while some binding was observed, it was below the level that would allow accurate calculation of a Kd
# Conditions: biotinylated HLA A*02:01 with excess β2m, Michaelis-Menten fit
# Protocol: (§1) An AlphaScreen® assay was used to evaluate the binding of peptides to HLA molecules. Donor beads conjugated with streptavidin, and acceptor beads conjugated with the anti-human HLA class I antibody W6/32, were used to assess peptide binding. Biotinylated HLAs (A*02:01, B*07:02, C*07:01, or C*07:02) were mixed with a fixed excess of β2m and the mixtures added to each well of a 384-well microplate. Serial dilutions of the synthesized phosphopeptides were added to the wells, and the resultant HLA/β2/peptide mixtures were incubated overnight at 18° C. W6/32 conjugated acceptor beads were subsequently added to the wells, and the mixture was incubated for 1 hour at 21° C. Streptavidin conjugated donor beads were then added to the wells, and the mixture was incubated for a further 1 hour at 21° C.
# (§2) The microplate was read using the PerkinElmer® plate reader, and data were plotted using the Michaelis-Menten equation to determine the Kd for each phosphopeptide.
# Table 5 lists the Kd of each of the selected phosphopeptides to the indicated HLAs (A*02:01, B*07:02, C*07:01, or C*07:02). NT means that binding was not tested. NB means no binding was detected. […] In each case, the phosphopeptides bound as indicated below.
Molecule,Kd in nM A*02:01,Kd
CC(C)[C@H](NC(=O)CNC(=O)[C@@H]1CCCN1C(=O)[C@@H]1CCCN1C(=O)[C@@H](NC(=O)[C@H](CCCNC(=N)N)NC(=O)[C@@H]1CCCN1C(=O)[C@H](C)N)[C@@H](C)OP(=O)(O)O)C(=O)N[C@H](C(=O)N[C@@H](Cc1ccccc1)C(=O)O)[C@@H](C)O [compound 120],NB,
CC[C@H](C)[C@H](NC(=O)[C@H](CO)NC(=O)[C@H](CCCNC(=N)N)NC(=O)[C@H](COP(=O)(O)O)NC(=O)[C@H](CC(C)C)NC(=O)[C@@H](N)Cc1ccccc1)C(=O)N1CCC[C@H]1C(=O)N[C@@H](CO)C(=O)N[C@@H](CC(C)C)C(=O)O [compound 228],,641 nM
CC(C)C[C@H](NC(=O)[C@H](CCC(=O)O)NC(=O)[C@H](CCC(=O)O)NC(=O)[C@H](CC(C)C)NC(=O)[C@H](COP(=O)(O)O)NC(=O)CNC(=O)[C@H](Cc1c[nH]cn1)NC(=O)[C@H](Cc1ccccc1)NC(=O)[C@H](CC(C)C)NC(=O)[C@@H](N)CCCCN)C(=O)O [compound 424],,203 nM
CC[C@H](C)[C@H](NC(=O)[C@H](Cc1ccc(O)cc1)NC(=O)[C@H](COP(=O)(O)O)NC(=O)[C@H](CC(C)C)NC(=O)[C@H](CC(C)C)NC(=O)[C@@H](N)CCCCN)C(=O)N[C@@H](CCC(N)=O)C(=O)N[C@@H](CCCNC(=N)N)C(=O)N[C@@H](CC(C)C)C(=O)O [compound 433],,188 nM
CSCC[C@H](NC(=O)[C@H](CC(C)C)NC(=O)[C@@H](N)CCC(N)=O)C(=O)N[C@H](C(=O)N[C@@H](CC(C)C)C(=O)N[C@@H](CCC(=O)O)C(=O)N[C@@H](CC(N)=O)C(=O)N[C@@H](CCCCN)C(=O)N[C@@H](CC(C)C)C(=O)O)[C@@H](C)OP(=O)(O)O [compound 654],,231 nM
CC(C)C[C@H](NC(=O)[C@@H](NC(=O)[C@H](CC(C)C)NC(=O)[C@@H]1CCCN1C(=O)[C@H](COP(=O)(O)O)NC(=O)[C@@H]1CCCN1C(=O)[C@@H](NC(=O)[C@H](CCCNC(=N)N)NC(=O)[C@@H]1CCCN1C(=O)[C@@H](N)CCC(N)=O)[C@@H](C)O)C(C)C)C(=O)O [compound 657],NB,
CC(C)C[C@H](NC(=O)[C@H](COP(=O)(O)O)NC(=O)[C@H](CCCNC(=N)N)NC(=O)[C@H](CCCCN)NC(=O)[C@H](CO)NC(=O)[C@H](CC(C)C)NC(=O)[C@H](Cc1ccccc1)NC(=O)[C@@H]1CCCN1C(=O)[C@@H](N)CO)C(=O)O [compound 1157],NB,
CC[C@H](C)[C@H](NC(=O)[C@@H]1CCCN1C(=O)[C@H](COP(=O)(O)O)NC(=O)[C@H](CCCNC(=N)N)NC(=O)[C@@H]1CCCN1C(=O)[C@@H](N)CO)C(=O)N[C@@H](CO)C(=O)N1CCC[C@H]1C(=O)N[C@@H](CCC(=O)O)C(=O)N[C@@H](CC(C)C)C(=O)O [compound 1179],NB,

# Target: T1, Biotinylated HLA-A*02:01 with β2m (human, biotinylated (site not stated))
# T1 construct: MHC class I heavy chain mixed with excess β2m
# Experiment: AlphaScreen; biotinylated HLA + excess β2m + peptide dilutions, W6/32 acceptor beads, streptavidin donor beads
# Conditions: not given
# Protocol: as §1, §2
row,Molecule,binding result
1,SRK[pS]FVFEL (predicted HLA-B*08:01 (not among the HLAs tested)) [SRKsFVFEL],no binding
2,HRV[pS]VILKL (predicted HLA-B*14:01 (not among the HLAs tested)) [HRVsVILKL],no binding
3,APR[pT]PPGVTF (predicted HLA-B*07:02) [APRtPPGVTF],no binding
4,SPFLSKR[pS]L (predicted HLA-B*07:02) [SPFLSKRsL],no binding
5,SPR[pS]PISPEL (predicted HLA-B*07:02) [SPRsPISPEL],no binding
6,YRL[pS]PEPTPL (predicted HLA-C*07:02 (not tested on it)) [YRLsPEPTPL],no binding

# Target: T1, Biotinylated HLA-A*02:01 with β2m
# Experiment: AlphaScreen; biotinylated HLA + excess β2m + peptide dilutions, W6/32 acceptor beads, streptavidin donor beads; Michaelis-Menten fit
# Conditions: not given
# Protocol: as §1, §2
row,Molecule,Kd
1,KLL[pS]YIQRL (predicted HLA-A*02:01) [KLLsYIQRL],188 nM
2,KLFHG[pS]LEEL (predicted HLA-A*02:01) [KLFHGsLEEL],203 nM
3,FL[pS]RSIPSL (predicted HLA-A*02:01) [FLsRSIPSL],641 nM
4,QLM[pT]LENKL (predicted HLA-A*02:01) [QLMtLENKL],231 nM
